According to US8226935 (dated 2012):
Each block holds one binder with its values, some of them ahead of it.

Target: T1, heregulin (125I-HRG) (human, UniProt Q02297)
T1 chain: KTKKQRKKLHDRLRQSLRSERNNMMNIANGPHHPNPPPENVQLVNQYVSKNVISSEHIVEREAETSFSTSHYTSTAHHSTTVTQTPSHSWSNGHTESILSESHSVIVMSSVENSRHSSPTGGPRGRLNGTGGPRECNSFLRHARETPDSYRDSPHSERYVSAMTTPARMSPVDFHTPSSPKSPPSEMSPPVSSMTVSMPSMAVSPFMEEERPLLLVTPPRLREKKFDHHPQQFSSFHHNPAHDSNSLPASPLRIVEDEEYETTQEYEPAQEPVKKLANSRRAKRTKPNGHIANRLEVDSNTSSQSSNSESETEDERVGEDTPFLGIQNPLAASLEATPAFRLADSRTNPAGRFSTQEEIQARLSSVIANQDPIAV
Experiment: other 125I-HRG radioligand binding, Scatchard

Kd: 4.98 nM
B1: ErbB4-IgG (antibody)
chain: QSVCAGTENKLSSLSDLEQQYRALRKYYENCEVVMGNLEITSIEHNRDLSFLRSVREVTGYVLVALNQFRYLPLENLRIIRGTKLYEDRYALAIFLNYRKDGNFGLQELGLKNLTEILNGGVYVDQNKFLCYADTIHWQDIVRNPWPSNLTLVSTNGSSGCGRCHKSCTGRCWGPTENHCQTLTRTVCAEQCDGRCYGPYVSDCCHRECAGGCSGPKDTDCFACMNFNDSGACVTQCPQTFVYNPTTFQLEHNFNAKYTYGAFCVKKCPHNFVVDSSSCVRACPSSKMEVEENGIKMCKPCTDICPKACDGIGTGSLMSAQTVDSSNIDKFINCTKINGNLIFLVTGIHGDPYNAIEAIDPEKLNVFRTVREITGFLNIQSWPPNMTDFSVFSNLVTIGGRVLYSGLSLLILKQQGITSLQFQSLKEISAGNIYITDNSNLCYYHTINWTTLFSTINQRIVIRDNRKAENCTAEGMVCNHLCSSDGCWGPGPDQCLSCRRFSRGRICIESCNLYDGEFREFENGSICVECDPQCEKMEDGLLTCHGPGPDNCTKCSHFKDGPNCVEKCPDGLQGANSFIFKYADPDRECHPCHPNCTQGCNGPTSHDCIYYPWTGHSTLPQHARTP
modifications: homodimeric ECD-human IgG Fc immunoadhesin

Kd: 5.98 nM
B2: ErbB3/4-IgG (antibody)
chain 1: not shown
chain 2: B1 chain
modifications: heterodimeric ECD-human IgG Fc immunoadhesin (mixture with homodimers)
